The record followed here is PMC12823420 (2024).

For assay [1], the target named is T1, UAP56 (human, UniProt Q13838 1-428). Briefly: AMP-PNP.
Assay [2] concerns the target T1, UAP56. Briefly: RNA + AMP-PNP.
In assay [3] the target is T1, UAP56.
Assay [4] concerns the target T1, UAP56. Briefly: RNA + AMP-PNP. The source holds these as a separate data set.
Assay [5] concerns the target T1, UAP56. Briefly: AMP-PNP. The source holds these as a separate data set.

Read-outs that look alike come from different tables or passages of the source. Where no end group is shown, it is not given here.

One may read the Kd as a measure of binding affinity in units of concentration. In general, koff refers to a measure of how fast the partners let go of each other. In the case of VDVAAEKKVVKITSEIPQTERMQKRAERFNVPVS (also: biotinylated, site not given here) [SARNP UCM-1 peptide, biotinylated], the Kd in the assay with UAP56 [1] amounted to 12 µM; with UAP56 [2] it was 13 µM. Further, the results for the koff with UAP56 [3] and in the assay with UAP56 [4] were 3.44 s⁻¹ and 2.67 s⁻¹, respectively.

For the molecule SISRKSEDDEKLKKRKERFGIVTS (also: biotinylated, site not given here) [SARNP UCM-4 peptide, biotinylated], the Kd with UAP56 [1] was determined as 11 µM; with UAP56 [2], 12 µM. Moreover, the values for the koff with UAP56 [3], in the assay with UAP56 [4] and with UAP56 [5] were 1.39 s⁻¹, 1.68 s⁻¹ and 0.83 s⁻¹, respectively.
